Assay results published in patent publication US20040009571A1 (published 2004).

Key:
[1] = target: STAT1 N-domain (S12A) (human) (UniProt P42224); experiment: analytical ultracentrifugation, sedimentation equilibrium; self-association
[2] = target: the molecule itself; experiment: analytical ultracentrifugation, sedimentation equilibrium; self-association (monomer 15,223 Da)
Experimental: (§1) As described below, point mutations in STAT1 were introduced at several sites at each of Interface I and II. The point mutation introduced in each of the STAT1 N-domain mutant proteins is indicated in the first column. The approximate molecular weight estimated by sedimentation equilibrium experiments, and migration as a monomer or dimer species on gel filtration analysis, is shown for each mutant protein.
(§2) For gel filtration analysis, 1.5 mg of purified STAT N domain protein in a volume of 500 μl was run on a 120 ml Superdex 75 column at a flow rate of 0.5 ml/min, in 50 mM Tris, pH 8.0, 100 mM NaCl and 1 mM DTT. Equilibrium sedimentation experiments were performed using a Beckman Optima XL-A analytical ultracentrifuge with an An-60 Ti rotor and six-sector cells. STAT N-domain proteins at concentrations of 0.65, 0.32 and 0.16 mg/ml were centrifuged in the gel filtration buffer, at 25,000 rev/min. at 4° C. for 20 h. Subsequently, absorbance measurements at 280 nm were taken in 0.001 cm radial steps and equilibrium was ascertained by comparing scans taken at 1 h intervals. The Optima XL-A/XL-I data analysis software from Beckman Coulter was used for data processing and curve fitting. A partial specific volume of 0.73 cm³/g was used and background absorbance was corrected empirically by allowing the baseline to float during the fitting calculations.

[3] = target: the molecule itself; experiment: analytical ultracentrifugation, sedimentation equilibrium (self-association)
Source text: Not only is Interface II more extensive than Interface I, it also involves interactions between hydrophobic residues (unlike the essentially polar nature of Interface I). Certain residues at interface II were individually replaced by Ala (Table 1) and the mutant STAT N-domains were examined for dimerization. […] The results for mutations at the other side of the interface provide evidence for interference with dimer formation. M28A migrated as an intermediate between dimer and monomer on gel filtration analysis, but appeared as a dimer by analytical ultracentrifugation analysis. […] The hydrophobic nature of the residues at positions 77 and 78 is conserved between STAT1 and STAT4, which has leucine residues at both positions. Likewise, Met 28 is conserved in STAT4.
For gel filtration analysis, 1.5 mg of purified STAT N domain protein in a volume of 500 μl was run on a 120 ml Superdex 75 column at a flow rate of 0.5 ml/min, in 50 mM Tris, pH 8.0, 100 mM NaCl and 1 mM DTT. […] Subsequently, absorbance measurements at 280 nm were taken in 0.001 cm radial steps and equilibrium was ascertained by comparing scans taken at 1 h intervals. […] A partial specific volume of 0.73 cm³/g was used and background absorbance was corrected empirically by allowing the baseline to float during the fitting calculations.

[4] = target: the molecule itself; experiment: analytical ultracentrifugation, sedimentation equilibrium; self-association
Experimental: as §1, §2

[5] = target: the molecule itself; experiment: gel filtration on Superdex 75 (self-association)
Experimental: as §2

Molecule	molecular weight by sedimentation equilibrium [4] [kDa]	also measured
STAT1 N-domain (S12A) (from UniProt P42224 1-124)	–	molecular weight by sedimentation equilibrium [1]: 17 kDa
wild type STAT1 N-domain (human STAT1 amino acid residues 1 to 124) (other, UniProt P42224 1-124, looked up, range 1-124; Expressed in E. coli as a GST fusion and released with TEV protease; also called N-domain of human STAT1) MSQWYELQQLDSKFLEQVHQLYDDSFPMEIRQYLAQWLEKQDWEHAANDVSFATIRFHDLLSQLDDQYSRFSLENNFLLQHNIRKSKRNLQDNFQEDPIQMSMIIYSCLKEERKILENAQRFNQ	–	molecular weight by sedimentation equilibrium [2]: ~28 kDa
STAT1 N-domain (L78A) (other, human, UniProt P42224 1-124, looked up, range 1-124; Interface II mutant; GST fusion cleaved with TEV protease; Its CD spectrum was identical to wild type; also called STAT1 L78A) MSQWYELQQLDSKFLEQVHQLYDDSFPMEIRQYLAQWLEKQDWEHAANDVSFATIRFHDLLSQLDDQYSRFSLENNFALQHNIRKSKRNLQDNFQEDPIQMSMIIYSCLKEERKILENAQRFNQ	–	binding result [3]: no binding (tested: 0.65, 0.32 and 0.16 mg/ml); molecular weight by sedimentation equilibrium [2]: ~15 kDa
STAT1 N-domain (Q41A) (other, human, UniProt P42224 1-124, looked up, range 1-124; Interface I mutant; GST fusion cleaved with TEV protease) MSQWYELQQLDSKFLEQVHQLYDDSFPMEIRQYLAQWLEKADWEHAANDVSFATIRFHDLLSQLDDQYSRFSLENNFLLQHNIRKSKRNLQDNFQEDPIQMSMIIYSCLKEERKILENAQRFNQ	~27	–
STAT1 N-domain (W37F) (other, human, UniProt P42224 1-124, looked up, range 1-124; Interface I mutant; GST fusion cleaved with TEV protease; also called N-domain of STAT1 (W37F)) MSQWYELQQLDSKFLEQVHQLYDDSFPMEIRQYLAQFLEKQDWEHAANDVSFATIRFHDLLSQLDDQYSRFSLENNFLLQHNIRKSKRNLQDNFQEDPIQMSMIIYSCLKEERKILENAQRFNQ	~28	–
STAT1 N-domain (Q36A) (other, human, UniProt P42224 1-124, looked up, range 1-124; Interface I mutant; GST fusion cleaved with TEV protease) MSQWYELQQLDSKFLEQVHQLYDDSFPMEIRQYLAAWLEKQDWEHAANDVSFATIRFHDLLSQLDDQYSRFSLENNFLLQHNIRKSKRNLQDNFQEDPIQMSMIIYSCLKEERKILENAQRFNQ	~29	–
STAT1 N-domain (L15A) (other, human, UniProt P42224 1-124, looked up, range 1-124; Interface II mutant; GST fusion cleaved with TEV protease) MSQWYELQQLDSKFAEQVHQLYDDSFPMEIRQYLAQWLEKQDWEHAANDVSFATIRFHDLLSQLDDQYSRFSLENNFLLQHNIRKSKRNLQDNFQEDPIQMSMIIYSCLKEERKILENAQRFNQ	~28	–
STAT1 N-domain (E29A) (other, human, UniProt P42224 1-124, looked up, range 1-124; Interface II mutant; GST fusion cleaved with TEV protease) MSQWYELQQLDSKFLEQVHQLYDDSFPMAIRQYLAQWLEKQDWEHAANDVSFATIRFHDLLSQLDDQYSRFSLENNFLLQHNIRKSKRNLQDNFQEDPIQMSMIIYSCLKEERKILENAQRFNQ	~27	–
STAT1 N-domain (F77A) (other, human, UniProt P42224 1-124, looked up, range 1-124; Interface II mutant; GST fusion cleaved with TEV protease; Its CD spectrum was identical to wild type; also called STAT1 F77A) MSQWYELQQLDSKFLEQVHQLYDDSFPMEIRQYLAQWLEKQDWEHAANDVSFATIRFHDLLSQLDDQYSRFSLENNALLQHNIRKSKRNLQDNFQEDPIQMSMIIYSCLKEERKILENAQRFNQ	–	binding result [5]: no binding (tested: 1.5 mg in 500 µl); molecular weight by sedimentation equilibrium [2]: ~15 kDa
STAT1 N-domain (R70A) (other, human, UniProt P42224 1-124, looked up, range 1-124; Interface I mutant; GST fusion cleaved with TEV protease) MSQWYELQQLDSKFLEQVHQLYDDSFPMEIRQYLAQWLEKQDWEHAANDVSFATIRFHDLLSQLDDQYSAFSLENNFLLQHNIRKSKRNLQDNFQEDPIQMSMIIYSCLKEERKILENAQRFNQ	~27	–
STAT1 N-domain (Q8A) (other, human, UniProt P42224 1-124, looked up, range 1-124; Interface II mutant; GST fusion cleaved with TEV protease) MSQWYELAQLDSKFLEQVHQLYDDSFPMEIRQYLAQWLEKQDWEHAANDVSFATIRFHDLLSQLDDQYSRFSLENNFLLQHNIRKSKRNLQDNFQEDPIQMSMIIYSCLKEERKILENAQRFNQ	~27	–
STAT1 N-domain (M28A) (other, human, UniProt P42224 1-124, looked up, range 1-124; Interface II mutant; GST fusion cleaved with TEV protease) MSQWYELQQLDSKFLEQVHQLYDDSFPAEIRQYLAQWLEKQDWEHAANDVSFATIRFHDLLSQLDDQYSRFSLENNFLLQHNIRKSKRNLQDNFQEDPIQMSMIIYSCLKEERKILENAQRFNQ	~26	–
